Experimental data: patent publication US20210162061A1 (DINGFU BIOTARGET, published 2021)

Columns and labels:
human CD47 [1] = molecular target: T1, human CD47 (human, UniProt Q08722 19-323); assay: flow cytometry histogram, 20 µg/ml, fresh human RBCs diluted 2500 times
T1 construct: whole, on cells; also called CD47 on A375 cells; CD47 on human erythrocytes (RBC)

CD47-EGFP = molecular target: T2, CD47-EGFP (human); assay: flow cytometry (MFI, anti-hIgG Fc PE) on cells expressing CD47-EGFP, unit taken from the axis Log10(ug/ml)
T2 construct: also called cell surface human CD47; cells expressing CD47-EGFP
Protocol: The cells were then analyzed by flow cytometry (Life Technology).

human CD47 [2] = molecular target: T1, human CD47; assay: flow cytometry histogram, 20 µg/ml, anti-hIgG Fc PE; tumor cells mixed with 15-fold excess of human RBCs; RBC gate
CD47-muFc = molecular target: T3, CD47-muFc (human); assay: BLI (Octet K2), CD47-muFc immobilised on AHC biosensors, 25 C
T3 construct: also called CD47-muFc fusion protein; Group 8
T3 sequence (chain, as listed by the source limits assumed): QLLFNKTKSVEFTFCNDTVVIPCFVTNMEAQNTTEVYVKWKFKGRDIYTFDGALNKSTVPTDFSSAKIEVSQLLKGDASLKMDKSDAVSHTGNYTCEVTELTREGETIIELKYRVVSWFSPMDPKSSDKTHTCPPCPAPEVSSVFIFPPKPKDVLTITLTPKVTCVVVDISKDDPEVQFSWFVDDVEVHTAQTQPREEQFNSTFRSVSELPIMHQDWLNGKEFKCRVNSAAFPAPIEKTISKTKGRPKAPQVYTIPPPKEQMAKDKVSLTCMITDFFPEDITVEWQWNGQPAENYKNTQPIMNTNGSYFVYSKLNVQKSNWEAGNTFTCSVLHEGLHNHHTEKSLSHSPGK
Protocol: All experiments were performed at 25° C. under a PBS buffer containing 0.5% BSA and 0.5% Tween 20, pH 7.2. […] After the above steps, the subtracted binding interference data were applied to the calculations of binding constants using the FortéBio analysis software provided with the instrument.

| binding result (human CD47 [1]) | EC50 (CD47-EGFP) | binding result (human CD47 [2]) | Kd (CD47-muFc) | koff (CD47-muFc) | kon (CD47-muFc) | Binder |
| --- | --- | --- | --- | --- | --- | --- |
| binds | – | – | – | – | – | hu56di-CV1 (Fc fusion, also called Group 14) chain 1: QVQLVESGGGLVQPGGSLRLSCAASGKMSSRRCMAWFRQAPGKERERVAKLLTTSGSTYLADSVKGRFTISRDNSKNTVYLQMNSLRAEDTAVYYCAADSFEDPTCTLVTSSGAFQYWGQGTLVTVSSGAPQVQLVESGGGLVQPGGSLRLSCAASGKMSSRRCMAWFRQAPGKERERVAKLLTTSGSTYLADSVKGRFTISRDNSKNTVYLQMNSLRAEDTAVYYCAADSFEDPTCTLVTSSGAFQYWGQGTLVTVSSEPKSSDKTHTCPPCPAPELLGGPSVFLFPPKPKDTLMISRTPEVTCVVVDVSHEDPEVKFNWYVDGVEVHNAKTKPREEQYNSTYRVVSVLTVLHQDWLNGKEYKCKVSNKALPAPIEKTISKAKGQPREPQVYTLPPCRDELTKNQVSLWCLVKGFYPSDIAVEWESNGQPENNYKTTPPVLDSDGSFFLYSALTVDKSRWQQGNVFSCSVMHEALHNHYTQKSLSLSPGK chain 2: EEELQIIQPDKSVLVAAGETATLRCTITSLFPVGPIQWFRGAGPGRVLIYNQRQGPFPRVTTVSDTTKRNNMDFSIRIGNITPADAGTYYCIKFRKGSPDDVEFKSGAGTELSVRAKPSGGGGSDKTHTCPPCPAPELLGGPSVFLFPPKPKDTLMISRTPEVTCVVVDVSHEDPEVKFNWYVDGVEVHNAKTKPREEQYNSTYRVVSVLTVLHQDWLNGKEYKCKVSNKALPAPIEKTISKAKGQPREPQVYTLPPSRDELTKNQVSLSCGVKGFYPSDIAVEWESNGQPENNYKTTPPVLDSDGSFKLASKLTVDKSRWQQGNVFSCSVMHEALHNHYTQKSLSLSPGK |
| – | 0.981 µg/mL | binds | 0.198 nM | 0.000129 s⁻¹ | 651000 M⁻¹ s⁻¹ | AB6.12 IgG1 (antibody, V domains shown, also called anti-CD47 monoclonal antibody AB6.12 IgG1; Group 20) VH: QMQLVQSGAEVKKTGSSVKVSCKASGFNIKDYYLHWVRQAPGQALEWMGWIDPDQGDTEYAQKFQDRVTITRDRSMSTAYMELSSLRSEDTAMYYCNAAYGSSSYPMDYWGQGTTVTVSS VL: NIQMTQSPSAMSASVGDRVTITCKASQDIHRYLSWFQQKPGKVPKHLIYRANRLVSGVPSRFSGSGSGTEFTLTISSLQPEDFATYYCLQYDEFPYTFGGGTKVEIKR |
